Where two headings read alike, the source gives them in different places.

One series concerns maize EPSPS. Put plainly: In vitro characterization of EPSPS mutants (EnzChek phosphate assay, Michaelis-Menten kinetics, glyphosate Ki). Type of series: biochemical, Zea mays. As to conditions: for Km: apparent Km, mean±S.E.; for Ki: inhibitory constant for glyphosate, no unit in table (around 800 μM). Here is the method: Activity was determined by quantifying release of Pi, coupled to a reaction with MESG, catalyzed by purine-nucleoside phosphorylase using the EnzChek Phosphate Assay Kit from Invitrogen, first published in 1992. 95 μL of master mix was added to each well and 5 μL of the varied substrate dilutions were multi-channeled into the plate to start the reaction simultaneously for all conditions. Absorbance measurements at 360 nm were taken every 10 seconds for 3 minutes to capture the initial reaction rate of each condition. Varying levels of substrate were added to generate the resulting reaction rate curves. Each condition was performed in triplicate. Ki was determined as previously described (Lu, et al., Protein Engineering, Design and Selection 30:395-399 (2017)). Data was fit to the Michaelis-Menten kinetics equation and were also validated through GraphPad Prism's built-in function for each variant.
For protein expression of EPSPS and its variants, E. coli BL21 (DE3) was used as the expression host. Electrocompetent cells were transformed with the corresponding constructed plasmids, pET28a (+) with selected EPSPS variants (wild-type, TIPS, TIPS P126S, TIPS K296R, TIPS P126S/K296R). A single colony of an E. coli BL21 (DE3) strain harboring one of the constructed plasmids was inoculated into 2 mL of Luria Bertani broth (LB) medium with 50 μg/mL kanamycin and grown overnight at 37° C./225 rpm. The overnight-grown culture (using 100 μl) was scaled up with 2000-fold dilution in a 500-mL triple baffled shake flask and grown to a cell density of 0.8 (optical density [OD600]) at 37° C./225 rpm. Protein expression was induced by adding 0.2 mM of isopropyl β-D-1-thiogalactopyranoside (IPTG) and cells were cultured for 24 hours at 20° C./225 rpm. The induced cell culture was harvested by centrifugation at 4,000 g and 4° C. for 20 mins. Cell pellets were then resuspended in 25 mL of Dulbecco's Phosphate Buffered Saline (DPBS) (Thermo Fisher Scientific, Waltham, MA) pH 7.0 buffer containing 10 mM imidazole, 1 g/L of lysozyme and 5 μl of Pierce™ Universal Nuclease (Thermo Fisher Scientific, Waltham, MA), followed by mixing on a rocker for 30 mins at 4° C. Subsequently, cells were lysed by sonication and the resulting cell lysate was centrifuged at 14,000 g and 4° C. for 20 minutes to obtain the supernatant that contains soluble proteins. Target proteins from the supernatant was purified by HisPur™ Ni-NTA Resin (Thermo Fisher Scientific, Waltham, MA) according to the manufacturer's instruction.
The eluate was dialyzed with 3C protease added to the dialysis cassette, into the appropriate buffer followed by size-exclusion fast protein liquid chromatography. All EPSP synthase variants were stored in 20 mM Tris (pH 7.5), 100 mM NaCl and 10 mM β-mercaptoethanol. The protein concentration was then determined by using the Coomassie Plus Bradford Assay kit (Thermo Fisher Scientific) and the Infinite M200 PRO microplate reader (Tecan, Männedorf, Switzerland) to measure the absorbance of assay mixtures. The presence and purity of the purified proteins were assessed by sodium dodecyl sulfate-polyacrylamide gel electrophoresis.
Enzymatic activity, including inhibitory constant Ki, for EPSPS and TIPS closely corroborate values determined by previous reports. Mutations P126S and K296R have beneficial effects on their own to both Km and kcat and are additive when combined, similar to the observations of the in vivo growth characterization. Furthermore, the high Ki is maintained for each of the variants, showing similar or slightly higher values of around 800 μM compared to the starting point, TIPS. These findings confirm the phenotype endowed by the dual-trait selection pressure employed during the directed evolution campaigns. Kinetic parameters of maize EPSPS with mutations discovered through directed evolution. In Table 4, initial velocity data were measured in triplicate and fit to the Michaelis-Menten equation. […]

Series [1] concerns S. cerevisiae strain sKR-024. Kind of series: Growth of synthetic yeast strain sKR-024 expressing EPSPS variants with or without glyphosate. Type of series: cell-based, Saccharomyces cerevisiae. The settings on record: for growth in yeast minimal media without glyphosate: 0 mM glyphosate. The protocol:
EPSPS variants were re-cloned into a clean p416-Core1p backbone and transformed into strain sKR-024 as described above. Colonies were then picked in triplicate into YSC-Ura-Leu and outgrown for 2 days at 30° C. Cultures were then diluted back to OD 0.001 in yeast minimal media (YMM) containing varying amounts of glyphosate as indicated. Growth rate measurements were then obtained using an Infinite M200 PRO microplate reader (Tecan, Männedorf, Switzerland) with incubation at 30° C. for 72-120 hours depending on growth rate of selected variants.
To determine if this system could further corroborate observations from previous literature, the well-studied EPSPS mutants T102I and P106S, and the combined double mutant TIPS (T102I-P106S) were generated and complemented into this yeast system. These mutations were reported to result in varying degrees of glyphosate resistance.
Having established low copy number and weak promoter expression of EPSPS variants, it was sought to recharacterize phenotypes under field conditions that are used in planta. […] It has been reported previously that under standard glyphosate foliar application, 0.3 mM or more of glyphosate (gly) can accumulate in a plant's root nodules and meristems. […] These trends support reported literature of mutants P106S and TIPS grown in various plant hosts. As a result, the present synthetic yeast model system closely resembles in planta observations and thus can be used to select for dual-trait EPSPS variants aimed at both enzymatic efficiency and glyphosate resistance.
Select mutants isolated from the final directed evolution campaign with the improved selection strategy were further evaluated in assorted glyphosate concentrations to determine growth characteristics. Mutants isolated from an EPSPS background were evaluated in media containing 0 mM and 0.25 mM glyphosate with the latter being the concentration at which wild-type EPSPS cannot grow after 100 hours. […] The non-glyphosate mono selection highlighted in blue represents mutations resulting from 5 subcultures in 0 mM glyphosate. The low glyphosate dual selection highlighted in light green represents mutants resulting from an additional subculture into 0.5 mM glyphosate. Lastly, the high glyphosate dual selection highlighted in dark green represent mutations isolated after subcultures in increasing levels of glyphosate, up to 10 mM.

Where [2] appears, read: PEP at saturation (roughly 10 times its Km), read-out: Km (S3P).
Where [3] appears, read: S3P at saturation (roughly 10 times its Km), read-out: Km (PEP).

B1: TIPS: Zea mays EPSPS double mutant T102I and P106S, SEQ ID NO:9; positive control (protein)
chain: AGAEEIVLQPIKEISGTVKLPGSKSLSNRILLLAALSEGTTVVDNLLNSEDVHYMLGALRTLGLSVEADKAAKRAVVVGCGGKFPVEDSKEEVQLFLGNAGIAMRSLTAAVTAAGGNATYVLDGVPRMRERPIGDLVVGLKQLGADVDCFLGTDCPPVRVNGIGGLPGGKVKLSGSISSQYLSALLMAAPLALGDVEIEIIDKLISIPYVEMTLRLMERFGVKAEHSDSWDRFYIKGGQKYKSPKNAYVEGDASSASYFLAGAAITGGTVTVEGCGTTSLQGDVKFAEVLEMMGAKVTWTETSVTVTGPPREPFGRKHLKAIDVNMNKMPDVAMTLAVVALFADGPTAIRDVASWRVKETERMVAIRTELTKLGASVEEGPDYCIITPPEKLNVTAIDTYDDHRMAMAFSLAACAEVPVAIRDPGCTRKTFPDYFDVLSTFVKN
modifications: Zea mays
notes: positive control
For B1, the Km (commonly the concentration of substrate that gives half-maximal velocity) in the series on maize EPSPS (setting [2]) came out at 33.2 µM; with maize EPSPS (setting [3]), 26.2 µM. For the same molecule, on maize EPSPS, the Ki (as a rule, a dissociation constant, usually derived from enzyme kinetics or from competition with a known ligand) turned out to be 739 µM. Also, in series [1], the “growth in yeast minimal media without glyphosate” value was “grew at a significant deficit”. For the same molecule, the growth in glyphosate entry in series [1] (0.5 mM glyphosate, Core1p promoter) is given as “grew well in the presence of glyphosate”. Moreover, the “order of glyphosate tolerance” value in series [1] (5 mM glyphosate, FIG. 1 Panel C) is “P106S<T102I<TIPS”.

B2: TIPS-P126S-K296R: maize EPSPS variant, probably SEQ ID NO:11 (protein)
chain: AGAEEIVLQPIKEISGTVKLPGSKSLSNRILLLAALSEGTTVVDNLLNSEDVHYMLGALRTLGLSVEADKAAKRAVVVGCGGKFPVEDSKEEVQLFLGNAGIAMRSLTAAVTAAGGNATYVLDGVSRMRERPIGDLVVGLKQLGADVDCFLGTDCPPVRVNGIGGLPGGKVKLSGSISSQYLSALLMAAPLALGDVEIEIIDKLISIPYVEMTLRLMERFGVKAEHSDSWDRFYIKGGQKYKSPKNAYVEGDASSASYFLAGAAITGGTVTVEGCGTTSLQGDVKFAEVLEMMGARVTWTETSVTVTGPPREPFGRKHLKAIDVNMNKMPDVAMTLAVVALFADGPTAIRDVASWRVKETERMVAIRTELTKLGASVEEGPDYCIITPPEKLNVTAIDTYDDHRMAMAFSLAACAEVPVAIRDPGCTRKTFPDYFDVLSTFVKN
modifications: Zea mays
B2: the Km was 16.8 µM with maize EPSPS (setting [2]) and 15.5 µM in the series with maize EPSPS (setting [3]). Moreover, in the series on maize EPSPS (higher than evolutionary starting point TIPS), the “enzymatic efficiency relative to TIPS” value is recorded as “roughly 2.5 fold”. Moreover, the Ki at maize EPSPS is 871 µM. Moreover, the “growth in yeast minimal media without glyphosate” value in series [1] is on record as “performed very similarly to wild-type EPSPS”. In addition, the “growth across glyphosate levels” value in series [1] (0.05 mM to 5 mM glyphosate) is on record as “performed extremely well in every condition of glyphosate”.

The values are drawn from patent publication US20260275304A1, “METHODS AND COMPOSITIONS FOR GLYPHOSATE TOLERANCE IN PLANTS” (Monsanto Technology LLC, priority 2023, published 2026).
